The values that follow come from patent US20220064276A1 (SCHOLAR ROCK, published 2022).

Changes are numbered by the printed parent chain. Read-outs that look alike come from different tables or passages of the source.

For assay [1], the target named is T1, human LTBP1-proTGFβ1 complex (human, UniProt Q14766 347-1721; P01137 30-390).
T1 construct: Large latent complex: one presenting molecule disulfide-linked to a proTGFβ1 dimer; also called Hu LTBP1-proTGFβ1; huLTBP1 proTGFβ1
As to the kind of experiment: Octet binning; competitor (immobilized second antibody) SR-AB2. Here is the method: (§1) 500 nM of human LTBP1-proTGFb1 complex was pre-incubated with 1 μM of each test antibody. After an overnight incubation, the LTBP1-proTGFβ1+first antibody was tested for binding to a second antibody which was immobilized to an Anti-Human IgG Fc Capture (AHC) sensor tip at 67 nM. The sensor tip was blocked with a negative control antibody (HuNeg) before seeing the LTBP1-proTGFβ1+first antibody.
(§2) Normalized responses less than 70% or less than 0.7 of the uninhibited interaction were considered antibodies that cross block.
In general terms: Biolayer interferometry detects binding as a change in optical thickness at a sensor tip.

Assay [2] deals with T2, human LTBP3-proTGFβ1 complex (human, UniProt Q9NS15 44-1303; P01137 30-390, limits assumed).
T2 construct: Exemplary entries; also called Hu LTBP3-proTGFβ1; huLTBP3 proTGFb1
The assay can be described thus: Octet (bio-layer interferometry), yeast expressed IgG1Agly antibody, antigen at a single 100 nM per Example 6, 1:1 fit; value printed under the panel.

For assay [3], the target named is T3, mouse LTBP1-proTGFβ1 complex (mouse, UniProt Q8CG19 339-1712; P04202 30-390).
T3 construct: Exemplary entries; In the cell assays expressed from mouse LTBP1S and mouse proTGFb1 plasmids in LN229 cells; also called Mo LTBP1-proTGFβ1; MuLTBP1-ProTGFb1
Described as above.

The target of assay [4] is T1, human LTBP1-proTGFβ1 complex. The assay is described as above.
Assay [5] has the same target. The assay can be described thus: Octet binning; competitor (immobilized second antibody) SR-AB13. Here is the method:
as §1, §2

Assay [6] addresses T4, LTBP-proTGFβ1: transfected human proTGFβ1 presented by endogenous LTBP1/3 of LN229 cells (human). As to the kind of experiment: cell-based or functional assay.
Assay [7] addresses T3, mouse LTBP1-proTGFβ1 complex. The assay can be described thus: cell-based or functional assay.
Assay [8] has as its target T1, human LTBP1-proTGFβ1 complex. The assay can be described thus: Octet binning; competitor (immobilized second antibody) SR-AB1. How it is done: as §1, §2
The target in assay [9] is T4, LTBP-proTGFβ1: transfected human …. As to the kind of experiment: cell-based or functional assay. The source holds these as a separate data set.
Assay [10] has as its target T3, mouse LTBP1-proTGFβ1 complex. As to the kind of experiment: cell-based or functional assay. The source holds these as a separate data set.
Assay [11] has as its target T1, human LTBP1-proTGFβ1 complex. As to the kind of experiment: Octet binning; competitor (immobilized second antibody) SR-AB10. How it is done:
as §1, §2

Assay [12] deals with T2, human LTBP3-proTGFβ1 complex. The assay can be described thus: Octet BLI, IgG captured. Here is the method: (§3) LTBP complex-specific antibodies from the first round of affinity maturation/optimization (SR-AB14, SR-AB16, SR-AB17, SR-AB18, SR-AB19) were selected for a second round of affinity maturation/optimization (i.e., CDR-H3 mutagenesis as described herein) and particular progeny antibodies (SR-AB20, SR-AB21, SR-AB22, SR-AB23, SR-AB24, SR-AB25, SR-AB26, SR-AB27, SR-AB28, and SR-AB29) were assessed for their ability to bind various proTGFβ1 constructs. Binding affinities of the optimized antibodies were measured by Octet against human LTBP1-proTGFβ1, human LTBP3-proTGFbl, mouse LTBP1-proTGFβ1, mouse LTBP3-proTGFbl, and GARP-proTGFβ1 complexes, essentially as described in Example 6. […] The antigens were allowed to associate for 3 minutes followed by a 5-minute dissociation. Kinetics buffer (ForteBio®) was used throughout the experiment, and KD was determined using a 1:1 fitting model for each antibody antigen pair.

Assay [13] concerns the target T3, mouse LTBP1-proTGFβ1 complex. As to the kind of experiment: Octet BLI, IgG captured. How it is done:
as §3

The target in assay [14] is T1, human LTBP1-proTGFβ1 complex. The assay can be described thus: Octet BLI, IgG captured. Here is the method:
as §3

The target in assay [15] is T5, mouse LTBP3-proTGFβ1 complex (mouse, UniProt Q61810 41-1245; P04202 30-390, limits assumed).
T5 construct: Exemplary entries; also called Mo LTBP3-proTGFβ1; Murine LTBP3 proTGFb1
As to the kind of experiment: Octet (bio-layer interferometry), yeast expressed IgG1Agly antibody, antigen at a single 100 nM per Example 6.

For assay [16], the target named is T6, human GARP-proTGFβ1 complex (human, UniProt Q14392 18-627; P01137 30-390, limits assumed).
T6 construct: Exemplary entries; also called Hu GARP-proTGFβ1; huGARP proTGFb1
Described as above.

The target in assay [17] is T4, LTBP-proTGFβ1: transfected human …. The assay can be described thus: cell-based or functional assay. This is another data set of the same source.
Assay [18] deals with T3, mouse LTBP1-proTGFβ1 complex. As to the kind of experiment: cell-based or functional assay. The source holds these as a separate data set.
The target of assay [19] is T5, mouse LTBP3-proTGFβ1 complex. As to the kind of experiment: Octet (bio-layer interferometry), yeast expressed IgG1Agly antibody, antigen at a single 100 nM per Example 6, 1:1 fit; value printed under the panel.
For assay [20], the target named is T4, LTBP-proTGFβ1: transfected human …. The assay can be described thus: cell-based or functional assay. This is another data set of the same source.
The target of assay [21] is T3, mouse LTBP1-proTGFβ1 complex. The assay can be described thus: cell-based or functional assay. The source holds these as a separate data set.
The target in assay [22] is T5, mouse LTBP3-proTGFβ1 complex. As to the kind of experiment: Octet BLI, IgG captured. How it is done: as §3
Assay [23] has the same target. As to the kind of experiment: SPR Biacore 8K, Fab over captured antigen; mean of 2. How it is done:
(§4) A Biacore 8K system was employed to determine the monovalent binding affinity and the kinetic parameters for antigen binding of test antibodies. Association and dissociation kinetics of Fab fragments SR-AB42-HuFab, SR-AB63-HuFab and SR-AB43-HuFab to antigen complexes were measured, and resulting ka, kd and KD are provided below. Briefly, the binding kinetics were evaluated by surface plasmon resonance using Biacore 8K (GE Healthcare). Biotinylated capture antigens were immobilized to the chip (10 nM, ˜200 RU loading). A Biotin CAPture sensor chip was used to capture the biotinylated antigens. […] 0 nM was used as a reference. […] 0 nM was used as a reference. Multi-cycle kinetics was employed where each analyte concentration was injected in a separate cycle and the sensor chip surface was regenerated after each cycle. A11 the assays were carried out in freshly prepared 1× HBS-EP+ buffer (10 mM HEPES, 150 mM NaCl, 3 mM EDTA, 0.05% Tween20, pH 7.4). Data were fit globally to a 1:1 binding model to obtain the kinetic parameters. The sensorgram for 0 nM analyte concentration was used as reference.
In general terms: Surface plasmon resonance follows binding to a sensor surface in real time, without labels.

The target in assay [24] is T1, human LTBP1-proTGFβ1 complex. As to the kind of experiment: SPR Biacore 8K, Fab over captured antigen. Here is the method: as §4

T1 sequence (Q14766 347-1721 limits assumed, chain 1 of 2): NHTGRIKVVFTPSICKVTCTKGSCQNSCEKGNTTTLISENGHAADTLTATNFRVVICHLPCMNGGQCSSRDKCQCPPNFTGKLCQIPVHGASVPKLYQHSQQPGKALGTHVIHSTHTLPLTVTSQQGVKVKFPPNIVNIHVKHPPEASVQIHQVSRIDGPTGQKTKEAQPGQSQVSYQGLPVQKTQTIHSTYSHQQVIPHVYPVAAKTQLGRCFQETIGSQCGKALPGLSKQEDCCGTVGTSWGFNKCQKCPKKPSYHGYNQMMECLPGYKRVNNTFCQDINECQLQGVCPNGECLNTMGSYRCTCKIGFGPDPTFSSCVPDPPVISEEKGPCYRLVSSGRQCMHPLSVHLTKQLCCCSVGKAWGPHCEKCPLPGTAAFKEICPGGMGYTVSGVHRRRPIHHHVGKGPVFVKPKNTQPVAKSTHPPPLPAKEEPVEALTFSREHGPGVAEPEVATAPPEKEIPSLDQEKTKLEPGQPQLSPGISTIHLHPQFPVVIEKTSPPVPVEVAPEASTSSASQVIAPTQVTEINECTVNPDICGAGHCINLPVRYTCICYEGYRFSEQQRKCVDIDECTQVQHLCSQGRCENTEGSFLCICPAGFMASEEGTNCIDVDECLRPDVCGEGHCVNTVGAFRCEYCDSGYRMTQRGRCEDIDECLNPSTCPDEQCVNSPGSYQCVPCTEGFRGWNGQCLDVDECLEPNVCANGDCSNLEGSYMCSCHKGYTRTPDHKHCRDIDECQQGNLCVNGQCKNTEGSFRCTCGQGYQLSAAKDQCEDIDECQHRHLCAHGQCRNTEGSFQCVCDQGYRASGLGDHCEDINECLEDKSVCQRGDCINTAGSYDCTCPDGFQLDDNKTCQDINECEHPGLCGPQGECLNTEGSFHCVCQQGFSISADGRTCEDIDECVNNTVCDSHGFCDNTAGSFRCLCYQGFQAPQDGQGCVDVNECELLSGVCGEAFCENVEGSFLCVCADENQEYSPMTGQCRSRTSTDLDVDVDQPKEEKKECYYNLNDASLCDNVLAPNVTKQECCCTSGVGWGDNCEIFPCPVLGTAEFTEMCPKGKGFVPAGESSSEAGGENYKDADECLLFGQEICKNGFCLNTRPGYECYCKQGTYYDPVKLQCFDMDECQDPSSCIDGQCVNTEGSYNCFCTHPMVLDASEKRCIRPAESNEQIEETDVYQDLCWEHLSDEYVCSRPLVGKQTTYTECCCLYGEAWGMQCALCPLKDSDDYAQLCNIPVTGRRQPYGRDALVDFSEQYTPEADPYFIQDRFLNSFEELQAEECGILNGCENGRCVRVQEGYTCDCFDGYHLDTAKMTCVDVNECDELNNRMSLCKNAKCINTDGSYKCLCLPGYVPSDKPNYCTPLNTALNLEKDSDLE
T1 sequence (P01137 30-390 limits assumed, chain 2 of 2): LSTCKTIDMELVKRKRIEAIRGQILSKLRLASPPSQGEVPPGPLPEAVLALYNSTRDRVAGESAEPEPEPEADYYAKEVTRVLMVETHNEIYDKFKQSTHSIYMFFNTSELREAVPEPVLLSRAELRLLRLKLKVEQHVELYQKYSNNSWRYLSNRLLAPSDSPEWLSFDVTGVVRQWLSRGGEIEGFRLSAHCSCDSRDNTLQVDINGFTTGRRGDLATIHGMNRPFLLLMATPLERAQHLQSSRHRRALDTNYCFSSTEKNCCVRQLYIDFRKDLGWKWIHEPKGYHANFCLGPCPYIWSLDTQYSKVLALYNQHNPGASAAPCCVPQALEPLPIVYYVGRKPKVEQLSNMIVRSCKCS
T5 sequence (Q61810 other isoform, or with tags, fused parts or gaps limits assumed, chain 1 of 2): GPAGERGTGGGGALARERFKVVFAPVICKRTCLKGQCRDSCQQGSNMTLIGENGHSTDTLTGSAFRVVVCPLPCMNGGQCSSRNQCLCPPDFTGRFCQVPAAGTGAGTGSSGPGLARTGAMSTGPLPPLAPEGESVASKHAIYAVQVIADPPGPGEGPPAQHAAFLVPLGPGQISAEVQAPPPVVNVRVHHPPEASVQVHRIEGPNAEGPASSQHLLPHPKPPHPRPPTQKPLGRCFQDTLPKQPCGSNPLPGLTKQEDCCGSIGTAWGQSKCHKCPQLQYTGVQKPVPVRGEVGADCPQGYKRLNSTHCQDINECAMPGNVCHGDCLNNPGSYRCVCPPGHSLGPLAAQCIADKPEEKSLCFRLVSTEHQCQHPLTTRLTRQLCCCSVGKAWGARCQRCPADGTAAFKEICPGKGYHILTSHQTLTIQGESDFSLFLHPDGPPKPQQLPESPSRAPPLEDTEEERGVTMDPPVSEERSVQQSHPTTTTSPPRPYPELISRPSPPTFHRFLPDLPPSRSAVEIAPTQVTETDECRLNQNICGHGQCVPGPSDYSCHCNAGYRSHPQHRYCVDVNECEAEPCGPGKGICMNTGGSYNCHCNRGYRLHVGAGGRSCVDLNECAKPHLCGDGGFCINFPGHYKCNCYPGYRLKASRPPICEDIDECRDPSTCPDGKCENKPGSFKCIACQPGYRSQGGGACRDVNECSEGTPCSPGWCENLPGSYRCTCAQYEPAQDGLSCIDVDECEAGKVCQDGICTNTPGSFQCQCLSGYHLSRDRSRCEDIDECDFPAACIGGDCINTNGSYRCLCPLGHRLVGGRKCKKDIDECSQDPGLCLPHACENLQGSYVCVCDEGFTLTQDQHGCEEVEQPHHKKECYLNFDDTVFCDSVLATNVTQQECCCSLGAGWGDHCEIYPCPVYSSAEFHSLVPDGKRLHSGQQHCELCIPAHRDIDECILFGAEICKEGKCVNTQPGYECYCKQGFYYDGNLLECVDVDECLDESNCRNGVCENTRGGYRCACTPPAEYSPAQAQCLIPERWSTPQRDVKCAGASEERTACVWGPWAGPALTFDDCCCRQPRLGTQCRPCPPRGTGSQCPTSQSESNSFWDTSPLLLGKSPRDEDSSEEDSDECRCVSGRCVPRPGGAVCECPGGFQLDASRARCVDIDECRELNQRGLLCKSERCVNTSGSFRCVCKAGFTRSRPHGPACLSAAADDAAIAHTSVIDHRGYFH
T5 sequence (P04202 30-390 limits assumed, chain 2 of 2): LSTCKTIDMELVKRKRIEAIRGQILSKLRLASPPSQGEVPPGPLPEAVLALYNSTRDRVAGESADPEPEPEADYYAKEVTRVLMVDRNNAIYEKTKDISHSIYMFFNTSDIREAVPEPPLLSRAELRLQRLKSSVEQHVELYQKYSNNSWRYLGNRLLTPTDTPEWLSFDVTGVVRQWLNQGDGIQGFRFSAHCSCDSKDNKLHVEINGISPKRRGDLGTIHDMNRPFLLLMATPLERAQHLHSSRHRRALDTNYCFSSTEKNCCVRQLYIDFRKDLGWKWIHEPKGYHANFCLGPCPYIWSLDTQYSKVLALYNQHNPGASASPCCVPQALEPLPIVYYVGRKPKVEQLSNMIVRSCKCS
T4 sequence (P01137 30-390): as the sequence (P01137 30-390 limits assumed, chain 2 of 2) above
T3 sequence (Q8CG19 339-1712 limits assumed, chain 1 of 2): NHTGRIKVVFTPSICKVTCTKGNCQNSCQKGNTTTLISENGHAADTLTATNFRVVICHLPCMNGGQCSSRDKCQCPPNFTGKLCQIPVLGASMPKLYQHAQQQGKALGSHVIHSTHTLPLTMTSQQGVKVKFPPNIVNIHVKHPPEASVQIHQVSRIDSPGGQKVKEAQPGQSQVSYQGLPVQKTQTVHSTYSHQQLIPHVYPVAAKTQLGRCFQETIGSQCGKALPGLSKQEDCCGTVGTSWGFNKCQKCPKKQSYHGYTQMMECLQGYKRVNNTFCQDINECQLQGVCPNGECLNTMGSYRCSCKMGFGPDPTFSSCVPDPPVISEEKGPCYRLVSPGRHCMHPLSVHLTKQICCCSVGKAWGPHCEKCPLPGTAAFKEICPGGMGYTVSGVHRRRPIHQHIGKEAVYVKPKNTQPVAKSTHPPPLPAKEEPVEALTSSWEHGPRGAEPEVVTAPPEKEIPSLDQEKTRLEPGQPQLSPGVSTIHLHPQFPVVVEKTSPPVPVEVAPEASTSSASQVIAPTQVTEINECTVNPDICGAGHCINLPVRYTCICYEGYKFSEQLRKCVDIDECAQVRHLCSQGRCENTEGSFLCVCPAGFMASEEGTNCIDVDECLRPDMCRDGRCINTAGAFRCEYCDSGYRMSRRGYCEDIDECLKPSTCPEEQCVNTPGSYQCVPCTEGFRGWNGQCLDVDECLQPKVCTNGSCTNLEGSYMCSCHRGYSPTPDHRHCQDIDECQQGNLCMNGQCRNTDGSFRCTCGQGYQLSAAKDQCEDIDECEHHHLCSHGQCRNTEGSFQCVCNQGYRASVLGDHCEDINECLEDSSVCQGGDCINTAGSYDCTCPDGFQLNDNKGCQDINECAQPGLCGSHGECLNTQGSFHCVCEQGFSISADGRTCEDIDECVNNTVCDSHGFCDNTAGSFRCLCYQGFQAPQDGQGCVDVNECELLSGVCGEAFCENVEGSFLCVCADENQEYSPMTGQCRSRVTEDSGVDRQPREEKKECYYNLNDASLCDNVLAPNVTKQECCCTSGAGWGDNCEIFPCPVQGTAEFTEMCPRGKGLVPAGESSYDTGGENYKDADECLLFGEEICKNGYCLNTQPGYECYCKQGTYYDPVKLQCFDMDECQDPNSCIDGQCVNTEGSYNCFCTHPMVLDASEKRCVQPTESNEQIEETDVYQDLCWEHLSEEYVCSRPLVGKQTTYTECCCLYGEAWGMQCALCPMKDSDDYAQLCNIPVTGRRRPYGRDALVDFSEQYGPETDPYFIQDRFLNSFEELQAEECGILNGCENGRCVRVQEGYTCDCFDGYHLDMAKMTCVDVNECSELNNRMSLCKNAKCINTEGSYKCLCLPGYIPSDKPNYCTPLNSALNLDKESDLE
T3 sequence (P04202 30-390 limits assumed, chain 2 of 2): as the sequence (P04202 30-390 limits assumed, chain 2 of 2) above

B1: SR-AB13 (antibody, IgG1, V domains shown)
VH: QLQLQESGPGLVKPSETLSLTCTVSGGSISSSSYYWGWIRQPPGKGLEWIGSISYSGSTYYNPSLKSRVTISVDTSKNQFSLKLSSVTAADTAVYYCARDPSYDSIAGMDVWGQGTTVTVSS
VL: DIQLTQSPSSLSASVGDRVTITCRASQSISSYLNWYQQKPGKAPKLLIYAASNLQSGVPSRFSGSGSGTDFTLTISSLQPEDFATYYCQQSFDFPFTFGGGTKVEIK
notes: Parent antibody; also called SR-13
On to B1, for which the normalized response in assay [1] is 1.29 fraction of uninhibited binding; in assay [5] it was 0.47 fraction of uninhibited binding; in [8], 1.08 fraction of uninhibited binding; in [11] it was 1.38 fraction of uninhibited binding. Moreover, the Kd (commonly the constant that tells how readily two partners part at equilibrium) in [2] was determined as 71 nM; in assay [3], 102 nM; in assay [4], 148 nM; in assay [12], 35.9 nM; in [13] it was 59.5 nM; in assay [14], 39.2 nM. Besides, the “IC50, endogenous hLTBP assay (CAGA12 luciferase)” value in [6] and in assay [9] was 4.83 nM throughout. The “IC50, mLTBP1 assay (CAGA12 luciferase)” value in [7] and in [10] was 25.4 nM throughout. For the same molecule, the binding result in assay [15] and in assay [16] was “no binding (tested: 100 nM)” in each case.

B2: SR-AB10 (antibody, IgG1, V domains shown)
VH: QLQLQESGGGVVQPGRSLRLSCAASGFTFNNYPIHWVRQAPGKGLEWVAVMSYDGINKYYADSVKGRFTISRDNSKNTLYLQMNSLRAEDTAVYYCARPRIAARRGGFDYWGQGTLVTVSS
VL: NFMLTQPHSVSESPGKTVTISCTRSSGNIDNNYVQWYQQRPGSSPTTVIYEDNQRPSGVPDRFSGSIDSSSNSASLTISGLKTEDEADYYCQSYDSDNQGVVFGGGTKLTVL
notes: Parent antibody
Turning to B2, the normalized response was 1.53 fraction of uninhibited binding in [1], 1.27 fraction of uninhibited binding in assay [5], 0.82 fraction of uninhibited binding in [8] and 0.51 fraction of uninhibited binding in assay [11]. Further, the “IC50, endogenous hLTBP assay (CAGA12 luciferase)” value in [17] and in assay [20] was 3.64 nM in each case. Besides, the “IC50, mLTBP1 assay (CAGA12 luciferase)” value in assay [18] and in assay [21] was 119 nM each time. Moreover, the Kd in [19] was found to be 86 nM; in [3], 79 nM; in assay [4] it was 308 nM; in assay [22] it was 23 nM; in assay [13], 14.2 nM. The binding result in [16] is “no binding (tested: 100 nM)”.

B3: SR-AB43-HuFab (Fab, V domains shown)
VH: QVQLVESGGGVVQPGRSLRLSCAASGFTFRSYVMHWVRQAPGKGLEWVAVISHEGSLKYYADSVKGRFTISRDNSKNTLYLQMNSLRAEDTAVYYCARPRIAARRGGFGYWGQGTLVTVSS
VL: B2 VL with N31Y, Q54V, G100R
notes: Human Fab; also called SR-AB43 Fab
In assay [23], B3 returned a Kd of 4.43 nM. Moreover, in assay [24], the Kd is 0.276 nM; the koff – broadly, the rate constant with which the complex falls apart – worked out at 0.000284 s⁻¹; the kon (in general, a measure of how fast the partners come together) is 1.03e+06 M⁻¹ s⁻¹.
